T1: DFNB31_3, Q9P202
T1 sequence (Q9P202 811-907, limits assumed, looked up): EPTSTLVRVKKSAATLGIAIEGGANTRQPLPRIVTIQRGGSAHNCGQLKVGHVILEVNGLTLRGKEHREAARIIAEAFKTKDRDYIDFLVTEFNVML

T2: GRIP1_5, Q9Y3R0
T2 sequence (Q9Y3R0 568-668, limits assumed, looked up): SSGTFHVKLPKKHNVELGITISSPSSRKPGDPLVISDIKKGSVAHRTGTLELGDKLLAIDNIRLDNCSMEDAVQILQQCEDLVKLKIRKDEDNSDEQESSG

T3: LNX2_2, Q8N448
T3 sequence (Q8N448 334-432, limits assumed, looked up): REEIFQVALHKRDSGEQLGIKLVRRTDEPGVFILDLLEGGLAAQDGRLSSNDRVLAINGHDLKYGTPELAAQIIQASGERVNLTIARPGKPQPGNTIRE

T4: MPP2, Q14168
T4 sequence (Q14168 180-250, limits assumed, looked up): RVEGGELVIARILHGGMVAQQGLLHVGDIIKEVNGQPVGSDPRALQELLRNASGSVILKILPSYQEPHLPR

T5: NHERF3_1, Q5T2W1
T5 sequence (Q5T2W1 4-100, limits assumed, looked up): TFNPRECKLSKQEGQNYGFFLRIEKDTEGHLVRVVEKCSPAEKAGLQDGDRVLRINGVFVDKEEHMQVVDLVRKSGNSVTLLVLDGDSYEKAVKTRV

T6: NHERF3_3, Q5T2W1
T6 sequence (Q5T2W1 238-333, limits assumed, looked up): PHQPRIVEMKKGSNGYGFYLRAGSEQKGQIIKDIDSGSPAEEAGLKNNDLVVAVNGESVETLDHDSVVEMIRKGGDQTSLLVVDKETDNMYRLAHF

T7: PCLO, Q9Y6V0
T7 sequence (Q9Y6V0 4491-4600, limits assumed, looked up): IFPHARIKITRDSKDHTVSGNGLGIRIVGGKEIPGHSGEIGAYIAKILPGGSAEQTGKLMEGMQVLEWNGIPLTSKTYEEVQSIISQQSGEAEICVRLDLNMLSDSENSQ

T8: SHANK1, Q9Y566
T8 sequence (Q9Y566 658-767, limits assumed, looked up): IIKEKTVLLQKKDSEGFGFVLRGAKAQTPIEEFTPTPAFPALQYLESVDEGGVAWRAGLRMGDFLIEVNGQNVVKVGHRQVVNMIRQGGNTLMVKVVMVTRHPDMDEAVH

T9: TIAM2, Q8IVF5
T9 sequence (Q8IVF5 885-986, limits assumed, looked up): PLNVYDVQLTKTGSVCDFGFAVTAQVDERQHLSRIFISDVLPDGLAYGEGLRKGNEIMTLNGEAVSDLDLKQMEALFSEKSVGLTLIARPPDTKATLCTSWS

T10: TJP3_3, O95049
T10 sequence (O95049 375-456, limits assumed, looked up): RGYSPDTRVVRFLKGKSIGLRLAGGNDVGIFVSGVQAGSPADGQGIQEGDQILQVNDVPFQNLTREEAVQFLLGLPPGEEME


How the values were obtained:
Assay in all cases: holdup assay
Design in all cases: key: below the threshold = too weak to quantify, mostly under pKd 3.1 to 4
Settings in all cases: plain residues with an end cap or a label only (N-terminal biotin on a linker: ado-ado)
DFNB31_3, Q9P202 = target: T1, DFNB31_3, Q9P202
DLG2_2, Q15700 = target: DLG2_2, Q15700
Chain of DLG2_2, Q15700 (Q15700 189-283): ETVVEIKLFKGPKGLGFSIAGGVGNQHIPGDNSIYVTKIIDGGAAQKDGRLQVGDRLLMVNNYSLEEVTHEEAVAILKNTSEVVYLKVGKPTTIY

DLG4_1, P78352 = target: DLG4_1, P78352
Chain of DLG4_1, P78352 (P78352 62-152): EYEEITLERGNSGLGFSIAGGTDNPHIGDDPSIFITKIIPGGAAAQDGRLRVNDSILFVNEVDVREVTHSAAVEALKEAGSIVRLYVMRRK

DLG4_2, P78352 = target: DLG4_2, P78352
Chain of DLG4_2, P78352 (P78352 155-259): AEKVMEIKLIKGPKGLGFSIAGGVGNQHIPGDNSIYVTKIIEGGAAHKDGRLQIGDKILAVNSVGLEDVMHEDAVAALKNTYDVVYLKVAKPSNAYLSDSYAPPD

DLG5_1, Q8TDM6 = target: DLG5_1, Q8TDM6
Chain of DLG5_1, Q8TDM6 (Q8TDM6 617-713): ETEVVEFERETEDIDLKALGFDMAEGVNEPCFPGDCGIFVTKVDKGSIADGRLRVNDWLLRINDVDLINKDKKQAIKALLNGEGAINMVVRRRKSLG

FRMPD2_3, Q68DX3 = target: FRMPD2_3, Q68DX3
Chain of FRMPD2_3, Q68DX3 (Q68DX3 1073-1166): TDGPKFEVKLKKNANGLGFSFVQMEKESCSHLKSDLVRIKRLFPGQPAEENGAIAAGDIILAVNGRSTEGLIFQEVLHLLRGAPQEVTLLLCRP

GORASP1, Q9BQQ3 = target: GORASP1, Q9BQQ3
Chain of GORASP1, Q9BQQ3 (Q9BQQ3 1-208): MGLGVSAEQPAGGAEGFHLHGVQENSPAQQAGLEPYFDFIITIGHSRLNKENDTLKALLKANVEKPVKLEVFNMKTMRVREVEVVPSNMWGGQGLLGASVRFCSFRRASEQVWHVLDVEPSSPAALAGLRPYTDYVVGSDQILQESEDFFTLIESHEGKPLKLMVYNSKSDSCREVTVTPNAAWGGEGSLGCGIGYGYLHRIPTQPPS

GRID2IP_1, A4D2P6 = target: GRID2IP_1, A4D2P6
Chain of GRID2IP_1, A4D2P6 (A4D2P6 1-87): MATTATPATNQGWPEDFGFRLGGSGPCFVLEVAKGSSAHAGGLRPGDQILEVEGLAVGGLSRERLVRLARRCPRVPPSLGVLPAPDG

GRIP1_5, Q9Y3R0 = target: T2, GRIP1_5, Q9Y3R0
IL16_1, Q14005 = target: IL16_1, Q14005
Chain of IL16_1, Q14005 (Q14005 210-306): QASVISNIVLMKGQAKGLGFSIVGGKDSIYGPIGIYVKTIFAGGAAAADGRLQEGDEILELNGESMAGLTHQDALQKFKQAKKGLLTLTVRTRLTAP

Inadl_6, Q8NI35 = target: Inadl_6, Q8NI35
Chain of Inadl_6, Q8NI35 (Q8NI35 1058-1167): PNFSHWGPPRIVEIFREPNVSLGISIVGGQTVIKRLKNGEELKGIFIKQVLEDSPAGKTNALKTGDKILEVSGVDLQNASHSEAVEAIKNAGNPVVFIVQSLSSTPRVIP

Inadl_8, Q8NI35 = target: Inadl_8, Q8NI35
Chain of Inadl_8, Q8NI35 (Q8NI35 1425-1530): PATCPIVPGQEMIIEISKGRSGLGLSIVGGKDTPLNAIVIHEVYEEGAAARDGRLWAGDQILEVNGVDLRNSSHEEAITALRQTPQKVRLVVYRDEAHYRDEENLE

LNX2_2, Q8N448 = target: T3, LNX2_2, Q8N448
MAGI2_2, Q86UL8 = target: MAGI2_2, Q86UL8
Chain of MAGI2_2, Q86UL8 (Q86UL8 410-522): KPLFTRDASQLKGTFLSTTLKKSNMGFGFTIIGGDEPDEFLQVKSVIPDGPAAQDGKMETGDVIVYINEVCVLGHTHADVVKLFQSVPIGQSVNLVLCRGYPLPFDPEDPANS

MAGI2_6, Q86UL8 = target: MAGI2_6, Q86UL8
Chain of MAGI2_6, Q86UL8 (Q86UL8 1141-1229): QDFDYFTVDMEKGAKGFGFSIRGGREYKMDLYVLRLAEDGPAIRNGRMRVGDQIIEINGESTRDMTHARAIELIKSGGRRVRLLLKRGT

MPP2, Q14168 = target: T4, MPP2, Q14168
NHERF3_1, Q5T2W1 = target: T5, NHERF3_1, Q5T2W1
NHERF3_3, Q5T2W1 = target: T6, NHERF3_3, Q5T2W1
NHERF4_1, Q86UT5-2 = target: NHERF4_1, Q86UT5-2
Chain of NHERF4_1, Q86UT5-2 (Q86UT5 other isoform, or with tags, fused parts or gaps): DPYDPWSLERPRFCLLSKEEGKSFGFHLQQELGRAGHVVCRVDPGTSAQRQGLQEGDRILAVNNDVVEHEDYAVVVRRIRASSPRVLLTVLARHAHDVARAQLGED

NOS1, P29475 = target: NOS1, P29475
Chain of NOS1, P29475 (P29475 9-101): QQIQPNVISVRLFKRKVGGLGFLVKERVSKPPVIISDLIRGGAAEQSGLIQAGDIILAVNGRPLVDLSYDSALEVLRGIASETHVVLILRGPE

PCLO, Q9Y6V0 = target: T7, PCLO, Q9Y6V0
PICK1, Q9NRD5 = target: PICK1, Q9NRD5
Chain of PICK1, Q9NRD5 (Q9NRD5 17-115): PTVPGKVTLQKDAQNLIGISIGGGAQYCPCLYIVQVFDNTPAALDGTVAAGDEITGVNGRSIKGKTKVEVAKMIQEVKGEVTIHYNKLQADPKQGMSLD

PTPN3, P26045 = target: PTPN3, P26045
Chain of PTPN3, P26045 (P26045 505-587): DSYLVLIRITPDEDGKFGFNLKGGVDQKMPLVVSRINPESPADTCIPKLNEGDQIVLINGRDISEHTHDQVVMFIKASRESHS

SHANK1, Q9Y566 = target: T8, SHANK1, Q9Y566
TIAM2, Q8IVF5 = target: T9, TIAM2, Q8IVF5
TJP1_3, Q07157 = target: TJP1_3, Q07157
Chain of TJP1_3, Q07157 (Q07157 416-512): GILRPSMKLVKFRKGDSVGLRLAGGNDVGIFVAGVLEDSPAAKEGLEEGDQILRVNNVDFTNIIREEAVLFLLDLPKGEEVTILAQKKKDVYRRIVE

TJP3_3, O95049 = target: T10, TJP3_3, O95049

Binder	pKd (DFNB31_3, Q9P202)	pKd (DLG2_2, Q15700)	pKd (DLG4_1, P78352)	pKd (DLG4_2, P78352)	pKd (DLG5_1, Q8TDM6)	pKd (FRMPD2_3, Q68DX3)	pKd (GORASP1, Q9BQQ3)	pKd (GRID2IP_1, A4D2P6)	pKd (GRIP1_5, Q9Y3R0)	pKd (IL16_1, Q14005)	pKd (Inadl_6, Q8NI35)	pKd (Inadl_8, Q8NI35)	pKd (LNX2_2, Q8N448)	pKd (MAGI2_2, Q86UL8)	pKd (MAGI2_6, Q86UL8)	pKd (MPP2, Q14168)	pKd (NHERF3_1, Q5T2W1)	pKd (NHERF3_3, Q5T2W1)	pKd (NHERF4_1, Q86UT5-2)	pKd (NOS1, P29475)	further results
QRYPGNQTTC [CCL24, O00175]	below the threshold	3.51	below the threshold	3.64	below the threshold	below the threshold	below the threshold	below the threshold	below the threshold	below the threshold	below the threshold	below the threshold	3.58	below the threshold	below the threshold	below the threshold	below the threshold	below the threshold	below the threshold	below the threshold	pKd (PCLO, Q9Y6V0): below the threshold; pKd (PICK1, Q9NRD5): below the threshold; pKd (PTPN3, P26045): 3.66; pKd (SHANK1, Q9Y566): below the threshold; pKd (TIAM2, Q8IVF5): 4.09; pKd (TJP1_3, Q07157): below the threshold; pKd (TJP3_3, O95049): below the threshold
HLSTRQGTCV [ATRNL1, Q5VV63]	below the threshold	4.21	4.33	4.43	below the threshold	below the threshold	3.47	below the threshold	below the threshold	3.63	below the threshold	4.25	5.01	4.73	4	below the threshold	3.87	below the threshold	below the threshold	4.07	pKd (PCLO, Q9Y6V0): below the threshold; pKd (PICK1, Q9NRD5): below the threshold; pKd (PTPN3, P26045): 4.54; pKd (SHANK1, Q9Y566): below the threshold; pKd (TIAM2, Q8IVF5): below the threshold; pKd (TJP1_3, Q07157): below the threshold; pKd (TJP3_3, O95049): below the threshold
VCMGDHWFDV [PRKN, O60260]	3.54	below the threshold	below the threshold	below the threshold	below the threshold	3.58	4.06	below the threshold	below the threshold	below the threshold	3.7	3.66	4.57	below the threshold	4.19	below the threshold	below the threshold	below the threshold	below the threshold	3.51	pKd (PCLO, Q9Y6V0): below the threshold; pKd (PICK1, Q9NRD5): below the threshold; pKd (PTPN3, P26045): 3.49; pKd (SHANK1, Q9Y566): below the threshold; pKd (TIAM2, Q8IVF5): below the threshold; pKd (TJP1_3, Q07157): below the threshold; pKd (TJP3_3, O95049): 4.57

Second part, led by results:

pKd (DFNB31_3, Q9P202)	pKd (DLG2_2, Q15700)	pKd (DLG4_1, P78352)	pKd (DLG4_2, P78352)	pKd (DLG5_1, Q8TDM6)	pKd (FRMPD2_3, Q68DX3)	pKd (GORASP1, Q9BQQ3)	pKd (GRID2IP_1, A4D2P6)	pKd (GRIP1_5, Q9Y3R0)	pKd (IL16_1, Q14005)	pKd (Inadl_6, Q8NI35)	pKd (Inadl_8, Q8NI35)	pKd (LNX2_2, Q8N448)	pKd (MAGI2_2, Q86UL8)	pKd (MAGI2_6, Q86UL8)	pKd (MPP2, Q14168)	pKd (NHERF3_1, Q5T2W1)	pKd (NHERF3_3, Q5T2W1)	pKd (NHERF4_1, Q86UT5-2)	pKd (NOS1, P29475)	Binder	further results
4.18	below the threshold	below the threshold	below the threshold	below the threshold	below the threshold	below the threshold	below the threshold	below the threshold	below the threshold	below the threshold	below the threshold	below the threshold	below the threshold	below the threshold	below the threshold	4.43	below the threshold	3.74	below the threshold	SSSVNVSSNL [CXCR1, P25024]	pKd (PCLO, Q9Y6V0): below the threshold; pKd (PICK1, Q9NRD5): 4.12; pKd (PTPN3, P26045): 4.48; pKd (SHANK1, Q9Y566): 3.94; pKd (TIAM2, Q8IVF5): below the threshold; pKd (TJP1_3, Q07157): below the threshold; pKd (TJP3_3, O95049): below the threshold
4.17	below the threshold	below the threshold	below the threshold	below the threshold	below the threshold	4.31	below the threshold	below the threshold	below the threshold	4.12	below the threshold	below the threshold	below the threshold	3.75	below the threshold	5.63	below the threshold	3.56	below the threshold	LLQEEWETVM [PTH1R, Q03431]	pKd (PCLO, Q9Y6V0): below the threshold; pKd (PICK1, Q9NRD5): 4.22; pKd (PTPN3, P26045): 4.92; pKd (SHANK1, Q9Y566): 4.85; pKd (TIAM2, Q8IVF5): below the threshold; pKd (TJP1_3, Q07157): below the threshold; pKd (TJP3_3, O95049): below the threshold
below the threshold	4.09	4.37	4.72	below the threshold	below the threshold	3.93	below the threshold	below the threshold	4.24	4.37	4.12	4.72	below the threshold	5.37	below the threshold	below the threshold	below the threshold	below the threshold	3.86	HYPASPDSWV [CTNND2, Q9UQB3]	pKd (PCLO, Q9Y6V0): below the threshold; pKd (PICK1, Q9NRD5): 4.17; pKd (PTPN3, P26045): 5.07; pKd (SHANK1, Q9Y566): below the threshold; pKd (TIAM2, Q8IVF5): below the threshold; pKd (TJP1_3, Q07157): 3.81; pKd (TJP3_3, O95049): 4.91

— article PMC9482650, “Quantitative fragmentomics allow affinity mapping of interactomes” (Nature Communications, 2022)
